# Laboratory results: article PMC4140749, “Identification of a Novel Hypocholesterolemic Protein, Major Royal Jelly Protein 1, Derived from Royal Jelly” (PLoS ONE, 2014)
# B1: major royal jelly protein 1 (natural protein, Apis mellifera, UniProt O18330 20-432, looked up)
# chain: NILRGESLNKSLPILHEWKFFDYDFGSDERRQDAILSGEYDYKNNYPSDIDQWHDKIFVTMLRYNGVPSSLNVISKKVGDGGPLLQPYPDWSFAKYDDCSGIVSASKLAIDKCDRLWVLDSGLVNNTQPMCSPKLLTFDLTTSQLLKQVEIPHDVAVNATTGKGRLSSLAVQSLDCNTNSDTMVYIADEKGEGLIVYHNSDDSFHRLTSNTFDYDPKFTKMTIDGESYTAQDGISGMALSPMTNNLYYSPVASTSLYYVNTEQFRTSDYQQNDIHYEGVQNILDTQSSAKVVSKSGVLFFGLVGDSALGCWNEHRTLERHNIRTVAQSDETLQMIASMKIKEALPHVPIFDRYINREYILVLSNKMQKMVNNDFNFDDVNFRIMNANVNELILNTRCENPDNDRTPFKISIHL
# notes: Major royal jelly protein 1 (MRJP1), Apis mellifera; 55 kDa on SDS-PAGE; Native protein isolated from royal jelly and identified by MALDI-TOF/MS; The introduction calls MRJPs glycoproteins; also called MRJP1; major RJ protein 1; source: purified from royal jelly (10-kDa cut-off RJ, size-exclusion chromatography on Superdex 200)
# Target: the molecule itself
# Test: SEC; 10-kDa cut-off royal jelly applied to HiLoad 26/60 Superdex 200 p.g.; 150 mM NaCl, 20 mM phosphate buffer pH 7.5; molecular weight calibrated with standard proteins; peak resolved by 15% SDS-PAGE
protein,measurement,value
B1,stoichiometry N,~5
